The target of data set [1] is EIN2-CEND (co-expressed in Arabidopsis mesophyll protoplasts) (UniProt Q9S814).
Data set [2] deals with His6-EBF2 (purified) (UniProt Q708Y0).
Sequence of His6-EBF2 (purified) (Q708Y0 whole entry): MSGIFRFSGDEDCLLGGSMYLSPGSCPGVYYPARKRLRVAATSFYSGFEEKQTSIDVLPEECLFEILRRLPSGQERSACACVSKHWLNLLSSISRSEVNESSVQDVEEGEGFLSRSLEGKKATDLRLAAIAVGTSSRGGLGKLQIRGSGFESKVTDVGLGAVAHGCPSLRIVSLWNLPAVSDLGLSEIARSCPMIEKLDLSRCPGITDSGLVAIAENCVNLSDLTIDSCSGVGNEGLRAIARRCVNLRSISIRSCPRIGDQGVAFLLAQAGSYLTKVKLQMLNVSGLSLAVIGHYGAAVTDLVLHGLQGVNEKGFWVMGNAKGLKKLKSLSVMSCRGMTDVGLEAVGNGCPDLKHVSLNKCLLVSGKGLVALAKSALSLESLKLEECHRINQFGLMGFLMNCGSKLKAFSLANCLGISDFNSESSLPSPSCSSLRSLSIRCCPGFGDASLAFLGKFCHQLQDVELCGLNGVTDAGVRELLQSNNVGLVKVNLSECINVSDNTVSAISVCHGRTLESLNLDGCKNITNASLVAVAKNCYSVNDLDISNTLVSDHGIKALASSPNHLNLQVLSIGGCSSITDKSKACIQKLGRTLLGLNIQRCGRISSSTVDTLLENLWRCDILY

Sequence of EIN2-CEND (co-expressed in Arabidopsis mesophyll protoplasts) (Q9S814 462-1294): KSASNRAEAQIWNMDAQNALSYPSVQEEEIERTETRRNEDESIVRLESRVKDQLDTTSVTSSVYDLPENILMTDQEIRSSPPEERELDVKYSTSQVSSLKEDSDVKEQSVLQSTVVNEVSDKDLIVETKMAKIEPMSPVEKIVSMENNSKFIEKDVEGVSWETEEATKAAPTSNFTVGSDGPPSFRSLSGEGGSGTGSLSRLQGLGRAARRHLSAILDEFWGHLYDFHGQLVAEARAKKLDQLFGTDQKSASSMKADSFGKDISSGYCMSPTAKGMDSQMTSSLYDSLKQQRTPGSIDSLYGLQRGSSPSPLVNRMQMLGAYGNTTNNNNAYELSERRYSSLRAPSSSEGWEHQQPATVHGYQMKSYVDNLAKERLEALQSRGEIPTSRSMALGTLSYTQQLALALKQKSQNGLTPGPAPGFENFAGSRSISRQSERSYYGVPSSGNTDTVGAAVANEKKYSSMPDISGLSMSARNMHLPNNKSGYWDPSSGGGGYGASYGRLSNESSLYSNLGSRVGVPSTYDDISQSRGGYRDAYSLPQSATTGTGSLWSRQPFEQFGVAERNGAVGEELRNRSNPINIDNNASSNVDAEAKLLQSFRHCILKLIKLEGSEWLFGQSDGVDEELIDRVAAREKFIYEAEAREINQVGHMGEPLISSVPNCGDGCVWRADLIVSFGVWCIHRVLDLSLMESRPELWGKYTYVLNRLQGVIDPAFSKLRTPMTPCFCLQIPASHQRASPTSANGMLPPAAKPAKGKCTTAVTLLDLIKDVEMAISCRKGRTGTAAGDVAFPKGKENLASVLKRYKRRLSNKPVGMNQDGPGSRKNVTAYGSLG
Sequence of His6-CTR1-KD^WT (purified CTR1 kinase domain, residues 531-821) (chain, as listed by the source): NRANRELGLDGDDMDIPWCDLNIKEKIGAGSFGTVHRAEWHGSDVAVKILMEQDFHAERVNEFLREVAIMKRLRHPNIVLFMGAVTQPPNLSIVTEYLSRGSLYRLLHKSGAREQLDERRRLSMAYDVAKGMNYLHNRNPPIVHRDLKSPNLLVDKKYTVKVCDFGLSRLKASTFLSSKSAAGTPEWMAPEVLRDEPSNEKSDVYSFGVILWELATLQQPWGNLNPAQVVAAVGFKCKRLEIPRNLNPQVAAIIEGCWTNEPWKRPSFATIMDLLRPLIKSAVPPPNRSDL
Sequence of CTR1-KD^AAA (CTR1 kinase domain with T704A/S707A/S710A, expressed in Arabidopsis mesophyll protoplasts) (chain, as listed by the source T704A S707A S710A): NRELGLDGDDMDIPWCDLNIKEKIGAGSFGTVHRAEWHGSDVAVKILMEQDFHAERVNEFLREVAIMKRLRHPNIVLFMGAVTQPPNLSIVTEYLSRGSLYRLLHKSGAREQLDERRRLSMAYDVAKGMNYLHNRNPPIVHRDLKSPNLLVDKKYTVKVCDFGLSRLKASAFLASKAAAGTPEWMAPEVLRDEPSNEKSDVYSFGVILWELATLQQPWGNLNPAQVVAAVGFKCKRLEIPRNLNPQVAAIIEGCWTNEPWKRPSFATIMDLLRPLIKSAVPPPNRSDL
Sequence of CTR1-KD (wild-type CTR1 kinase domain lacking the N-terminal domain, expressed in Arabidopsis mesophyll protoplasts) (chain, as listed by the source): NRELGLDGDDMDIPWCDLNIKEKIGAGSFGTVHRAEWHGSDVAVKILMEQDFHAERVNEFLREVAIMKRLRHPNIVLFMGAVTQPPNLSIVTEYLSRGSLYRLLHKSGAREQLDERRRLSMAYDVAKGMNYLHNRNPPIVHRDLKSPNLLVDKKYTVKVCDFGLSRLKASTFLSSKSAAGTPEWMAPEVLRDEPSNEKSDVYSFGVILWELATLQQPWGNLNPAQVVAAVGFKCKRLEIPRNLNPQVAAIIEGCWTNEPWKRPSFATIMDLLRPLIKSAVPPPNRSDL

Take “CTR1-KD^AAA (CTR1 kinase domain with T704A/S707A/S710A, expressed in Arabidopsis mesophyll protoplasts)”: in data set [1], the “Phos-tag gel band shift of EIN2-CEND on co-expression in Arabidopsis mesophyll protoplasts” value is “Wild-type CTR1-KD, but not CTR1-KD^AAA, phosphorylated EIN2-CEND when co-expressed in Arabidopsis mesophyll protoplasts”.

For the substance “His6-CTR1-KD^WT (purified CTR1 kinase domain, residues 531-821)”, the “in vitro kinase assay ([γ-32P]ATP incorporation, autoradiography)” value in data set [2] was “in vitro kinase assay demonstrated that CTR1 does not phosphorylate EBF2”.

On to “CTR1-KD (wild-type CTR1 kinase domain lacking the N-terminal domain, expressed in Arabidopsis mesophyll protoplasts)”, for which, in data set [1], the “Phos-tag gel band shift of EIN2-CEND on co-expression in Arabidopsis mesophyll protoplasts” value is recorded as “Wild-type CTR1-KD, but not CTR1-KD^AAA, phosphorylated EIN2-CEND when co-expressed in Arabidopsis mesophyll protoplasts”.

These data come from US20240175042.
